From patent publication US20230406921A1 (MABWELL SHANGHAI BIOSCIENCE, published 2023)

Tests used:
[1] = biological target: T1, CD47 on the surface of human red blood cells (human, UniProt Q08722 19-323); test: FACS, RBC, 200 nM
T1 construct: whole, on cells; Same protein as m3, on red blood cells; also called hRBC; RBC
Protocol: (§1) The difference between the binding of the mutant to CD47 on the surface of tumor cells and CD47 on the surface of red blood cells was evaluated.

[2] = biological target: T2, recombinant antigen of the extracellular region of CD47 (Sino Biological, Cat: 12283-H08H) (human, UniProt Q08722 19-139); test: Fortebio BLI, recombinant CD47
T2 construct: extracellular domain; also called recombinant CD47 extracellular region; CD47 recombinant protein

[3] = biological target: T3, CD47 on the surface of tumor cells (human, UniProt Q08722 19-323); test: FACS, tumor cells, 2 nM
T3 construct: whole, on cells; Same protein as m4; also called CD47 antigen on the surface of U937 and CCRF cells; SKOV-3
Protocol: as §1

[4] = biological target: T2, recombinant antigen of the …; test: Fortebio BLI, antibody on AHC sensor, CD47 extracellular region 100 nM;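 further: antibody held on the sensor through anti-human Fc capture, CD47 antigen in solution, association and dissociation phases each lasting 300 s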
Protocol: The affinity between the obtained mutant antibody and the CD47 recombinant protein was determined by Fortebio. The antibody was immobilized on the surface of a sensor with the anti-human Fc capture antibody (AHC Sensor), and reacted with the recombinant antigen of the extracellular region of CD47 (with a working concentration of 100 nM) in the liquid phase. The duration for binding and dissociation was both 300 seconds. The kinetic parameters were determined.

[5] = biological target: T3, CD47 on the surface of tumor cells; test: FACS, tumor cells, 1 nM
Protocol: as §1

| Binder | FACS (MFI) [1] | Kd [2] | kon [2] | FACS (MFI) [3] | Kd [4] | koff [4] | kon [4] | FACS (MFI) [5] |
| --- | --- | --- | --- | --- | --- | --- | --- | --- |
| hz140-Hm13/hz182-Lm7 (antibody, V domains shown) VH: EVQLVQSGAEVKKPGASVKVSCKASGYKFTNYVMSWVRQAPGQRLEWMGYINPYNDAIKYNEKFTGRVTITRDTSASTAYMELSSLRSEDTAVYYCAREGDFYANYGRLGFAYWGQGTLVTVSS VL: DIQMTQSPSSLSASVGDRVTITCRASQDISNYLNWYQQKPGKAPKLLLYYTSRLHSGVPSRFSGSGSGTDYTLTISSLQPEDFATYFCQQGAGFPYTFGGGTKVEIKR | 349 MFI | 16.6 nM | 201000 M⁻¹ s⁻¹ | 17800 MFI |  |  |  |  |
| hz140-Hm13/hz182-Lm8 (antibody, V domains shown, also called h182Lmut8) VH: EVQLVQSGAEVKKPGASVKVSCKASGYKFTNYVMSWVRQAPGQRLEWMGYINPYNDAIKYNEKFTGRVTITRDTSASTAYMELSSLRSEDTAVYYCAREGDFYANYGRLGFAYWGQGTLVTVSS VL: DIQMTQSPSSLSASVGDRVTITCRASQDISNYLNWYQQKPGKAPKLLLYYTSRLHSGVPSRFSGSGSGTDYTLTISSLQPEDFATYFCQQGAGRPRTFGGGTKVEIKR | 40800 MFI | 12.9 nM | 234000 M⁻¹ s⁻¹ | 39100 MFI |  |  |  |  |
| hz140-Hm13/hz182-Lm9 (antibody, V domains shown) VH: EVQLVQSGAEVKKPGASVKVSCKASGYKFTNYVMSWVRQAPGQRLEWMGYINPYNDAIKYNEKFTGRVTITRDTSASTAYMELSSLRSEDTAVYYCAREGDFYANYGRLGFAYWGQGTLVTVSS VL: DIQMTQSPSSLSASVGDRVTITCRASQDISNYLNWYQQKPGKAPKLLLYYTSRLHSGVPSRFSGSGSGTDYTLTISSLQPEDFATYFCQQGDTFPYTFGGGTKVEIKR | 1750 MFI | 38.9 nM | 132000 M⁻¹ s⁻¹ | 16400 MFI |  |  |  |  |
| hz140-Hm13/hz182-L (antibody, V domains shown) VH: EVQLVQSGAEVKKPGASVKVSCKASGYKFTNYVMSWVRQAPGQRLEWMGYINPYNDAIKYNEKFTGRVTITRDTSASTAYMELSSLRSEDTAVYYCAREGDFYANYGRLGFAYWGQGTLVTVSS VL: DIQMTQSPSSLSASVGDRVTITCRASQDISNYLNWYQQKPGKAPKLLLYYTSRLHSGVPSRFSGSGSGTDYTLTISSLQPEDFATYFCQQGAGRPYTFGGGTKVEIK | 2060 MFI | 5.97 nM | 125000 M⁻¹ s⁻¹ | 25800 MFI | 6.2 nM | 0.00163 s⁻¹ | 263000 M⁻¹ s⁻¹ |  |
| hz140-Hm13/hz182-Lm11 (antibody, V domains shown) VH: EVQLVQSGAEVKKPGASVKVSCKASGYKFTNYVMSWVRQAPGQRLEWMGYINPYNDAIKYNEKFTGRVTITRDTSASTAYMELSSLRSEDTAVYYCAREGDFYANYGRLGFAYWGQGTLVTVSS VL: DIQMTQSPSSLSASVGDRVTITCRASQDISNYLNWYQQKPGKAPKLLLYYTSRLHSGVPSRFSGSGSGTDYTLTISSLQPEDIATYFCQQGDTFPYTFGGGTKVEIKR | 321 MFI | 53.1 nM | 103000 M⁻¹ s⁻¹ | 20100 MFI |  |  |  |  |
| hz140-Hm13/hz182-Lm5 (antibody, V domains shown) VH: EVQLVQSGAEVKKPGASVKVSCKASGYKFTNYVMSWVRQAPGQRLEWMGYINPYNDAIKYNEKFTGRVTITRDTSASTAYMELSSLRSEDTAVYYCAREGDFYANYGRLGFAYWGQGTLVTVSS VL: DIQMTQSPSSLSASVGDRVTITCRASQDISNYLNWYQQKPGKAPKLLLYYTSRLHSGVPSRFSGSGSGTDYTLTISSLQPEDFATYFCQQGDGRPYTFGGGTKVEIKR | 3310 MFI | 667 nM | 79900 M⁻¹ s⁻¹ | 39900 MFI |  |  |  |  |
| hz140-Hm13/hz182-Lm3 (antibody, V domains shown) VH: EVQLVQSGAEVKKPGASVKVSCKASGYKFTNYVMSWVRQAPGQRLEWMGYINPYNDAIKYNEKFTGRVTITRDTSASTAYMELSSLRSEDTAVYYCAREGDFYANYGRLGFAYWGQGTLVTVSS VL: DIQMTQSPSSLSASVGDRVTITCRASQDISNYLNWYQQKPGKAPKLLLYYTSRLHSGVPSRFSGSGSGTDYTLTISSLQPEDIATYFCQQGAGRPYTFGGGTKVEIKR | 874 MFI | 16.7 nM | 145000 M⁻¹ s⁻¹ | 30000 MFI |  |  |  |  |
| hz140-Hm13/hz182-Lm1 (antibody, V domains shown, also called hz182-Lml) VH: EVQLVQSGAEVKKPGASVKVSCKASGYKFTNYVMSWVRQAPGQRLEWMGYINPYNDAIKYNEKFTGRVTITRDTSASTAYMELSSLRSEDTAVYYCAREGDFYANYGRLGFAYWGQGTLVTVSS VL: DIQMTQSPSSLSASVGDRVTITCRASQDISNYLNWYQQKPGKAPKLLIYYTSRLHSGVPSRFSGSGSGTDYTLTISSLQPEDFATYFCQQGAGRPYTFGGGTKVEIKR | 2320 MFI | 7.06 nM | 134000 M⁻¹ s⁻¹ | 15500 MFI |  |  |  |  |
| hz140-Hm13/hz182-Lm2 (antibody, V domains shown) VH: EVQLVQSGAEVKKPGASVKVSCKASGYKFTNYVMSWVRQAPGQRLEWMGYINPYNDAIKYNEKFTGRVTITRDTSASTAYMELSSLRSEDTAVYYCAREGDFYANYGRLGFAYWGQGTLVTVSS VL: DIQMTQSPSSLSASVGDRVTITCRASQDISNYLNWYQQKPGKAPKLLLYYTSRLHSGVPSRFSGSGSGTDYTFTISSLQPEDFATYFCQQGAGRPYTFGGGTKVEIKR | 1670 MFI | 1410 nM | 94700 M⁻¹ s⁻¹ | 30400 MFI |  |  |  |  |
| h140Hm13/h140Lm16 (antibody, V domains shown) VH: EVQLVQSGAEVKKPGASVKVSCKASGYKFTNYVMSWVRQAPGQRLEWMGYINPYNDAIKYNEKFTGRVTITRDTSASTAYMELSSLRSEDTAVYYCAREGDFYANYGRLGFAYWGQGTLVTVSS VL: DIQMTQSPSSLSASVGDRVTITCRASQDITNYLNWYQQKPGKAPKLLIYYTSRLQSGVPSRFSGSGSGTDYTFTISSLQPEDIATYFCQQGDTSPYTFGGGTKVEIK |  |  |  |  |  |  |  | 12200 MFI |
| h140Hm13/h140Lm18 (antibody, V domains shown) VH: EVQLVQSGAEVKKPGASVKVSCKASGYKFTNYVMSWVRQAPGQRLEWMGYINPYNDAIKYNEKFTGRVTITRDTSASTAYMELSSLRSEDTAVYYCAREGDFYANYGRLGFAYWGQGTLVTVSS VL: DIQMTQSPSSLSASVGDRVTITCRASQDITNYLNWYQQKPGKAPKLLIYYTSRLQSGVPSRFSGSGSGTDYTFTISSLQPEDIATYFCQQGDTNPYTFGGGTKVEIK |  |  |  |  |  |  |  | 9920 MFI |
| hz140-Hm13/hz182-Lm10 (antibody, V domains shown) VH: EVQLVQSGAEVKKPGASVKVSCKASGYKFTNYVMSWVRQAPGQRLEWMGYINPYNDAIKYNEKFTGRVTITRDTSASTAYMELSSLRSEDTAVYYCAREGDFYANYGRLGFAYWGQGTLVTVSS VL: DIQMTQSPSSLSASVGDRVTITCRASQDISNYLNWYQQKPGKAPKLLLYYTSRLHSGVPSRFSGSGSGTDYTLTISSLQPEDIATYFCQQGAGFPYTFGGGTKVEIKR | 326 MFI | 5.14 nM | 176000 M⁻¹ s⁻¹ | 19000 MFI |  |  |  |  |
| h140Hm13/h140Lm17 (antibody, V domains shown) VH: EVQLVQSGAEVKKPGASVKVSCKASGYKFTNYVMSWVRQAPGQRLEWMGYINPYNDAIKYNEKFTGRVTITRDTSASTAYMELSSLRSEDTAVYYCAREGDFYANYGRLGFAYWGQGTLVTVSS VL: DIQMTQSPSSLSASVGDRVTITCRASQDITNYLNWYQQKPGKAPKLLIYYTSRLQSGVPSRFSGSGSGTDYTFTISSLQPEDIATYFCQQGDTEPYTFGGGTKVEIK |  |  |  |  |  |  |  | 11200 MFI |
| h140Hm13/h140Lm15 (antibody, V domains shown) VH: EVQLVQSGAEVKKPGASVKVSCKASGYKFTNYVMSWVRQAPGQRLEWMGYINPYNDAIKYNEKFTGRVTITRDTSASTAYMELSSLRSEDTAVYYCAREGDFYANYGRLGFAYWGQGTLVTVSS VL: DIQMTQSPSSLSASVGDRVTITCRASQDITNYLNWYQQKPGKAPKLLIYYTSRLQSGVPSRFSGSGSGTDYTFTISSLQPEDIATYFCQQGDTKPYTFGGGTKVEIK |  |  |  |  |  |  |  | 15700 MFI |
| hz140-Hm13/hz182-Lm4 (antibody, V domains shown) VH: EVQLVQSGAEVKKPGASVKVSCKASGYKFTNYVMSWVRQAPGQRLEWMGYINPYNDAIKYNEKFTGRVTITRDTSASTAYMELSSLRSEDTAVYYCAREGDFYANYGRLGFAYWGQGTLVTVSS VL: DIQMTQSPSSLSASVGDRVTITCRASQDITNYLNWYQQKPGKAPKLLLYYTSRLHSGVPSRFSGSGSGTDYTLTISSLQPEDFATYFCQQGAGRPYTFGGGTKVEIKR | 1840 MFI | 989 nM | 87900 M⁻¹ s⁻¹ | 28500 MFI |  |  |  |  |
| hz140-Hm13/hz182-Lm6 (antibody, V domains shown) VH: EVQLVQSGAEVKKPGASVKVSCKASGYKFTNYVMSWVRQAPGQRLEWMGYINPYNDAIKYNEKFTGRVTITRDTSASTAYMELSSLRSEDTAVYYCAREGDFYANYGRLGFAYWGQGTLVTVSS VL: DIQMTQSPSSLSASVGDRVTITCRASQDISNYLNWYQQKPGKAPKLLLYYTSRLHSGVPSRFSGSGSGTDYTLTISSLQPEDFATYFCQQGATRPYTFGGGTKVEIKR | 695 MFI | 12.5 nM | 114000 M⁻¹ s⁻¹ | 15900 MFI |  |  |  |  |
